This note sets out measurements from article PMC314469, “Protein Interaction Networks by Proteome Peptide Scanning” (PLoS Biology, 2004).

T1: Myo5 SH3 (MYO5_YEAST), Q04439
T1 chain: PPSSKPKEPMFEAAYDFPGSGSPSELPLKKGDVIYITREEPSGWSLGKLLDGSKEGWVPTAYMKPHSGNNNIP

B1: YPR112C 91-104 (peptide)
chain: MAKSFADPRVPQPM
B2: YHR165C 44-57 (peptide)
chain: NEDTFLPPPPPPPS
B3: YDR416W 508-521 (peptide)
chain: LEDALHVPTNPEIL
B4: YHR117W 470-483 (peptide)
chain: NETKLKFPTLPEVP
B5: YNL223W 328-341 (peptide)
chain: NEFLHFDPHIPQPA
B6: YJR106W 230-243 (peptide)
chain: MASGLLPPIQPGFD
B7: YIR010W 139-152 (peptide)
chain: NASAMPAPYMPYYY
B8: YHR197W 602-615 (peptide)
chain: MFELLSHPKVPVGM
B9: YGR032W 156-169 (peptide)
chain: NAIEMALPNDPYPA
B10: YLR203C 42-55 (peptide)
chain: NALGLDPPPSPEDP
B11: YGR094W 895-908 (peptide)
chain: NALKLIHPFMPFIS
B12: YPL058C 1310-1323 (peptide)
chain: LWILYMSPDVPSAS
B13: YLR179C 73-86 (peptide)
chain: LALLMTDPDAPSRT
B14: YCL055W 320-333 (peptide)
chain: NEIELLRPRSPVQK
B15: YKR021W 416-429 (peptide)
chain: LLAEHNGPKLPHIP
B16: YOL008W 138-151 (peptide)
chain: KWTIMPHPNRPNAA
B17: YDL151C 103-116 (peptide)
chain: LAIRLSWPPAPVTL
B18: YPL063W 167-180 (peptide)
chain: MFTYFQEPPFPDLL
B19: YCL040W 391-404 (peptide)
chain: LLQSLRLPTTPTER
B20: YOR151C 792-805 (peptide)
chain: MANILYYPQKPLGT
B21: YJL115W 157-170 (peptide)
chain: NEGDLYPPEQPGVD
B22: YOR181W 341-353 (peptide)
chain: LPAPPPPPRRGPA
B23: YOR207C 724-737 (peptide)
chain: LLYLMTYPQQPMVK
B24: YML068W 248-261 (peptide)
chain: MLKALFTPLIPVSF
B25: YGR065C 182-195 (peptide)
chain: LPFMYLLPRFPSHI
B26: YOR290C 25-38 (peptide)
chain: NEHGMNAPSVPEFI
B27: YFR019W 1841-1854 (peptide)
chain: LWKPLVYPTSPSEH
B28: YCL051W 199-212 (peptide)
chain: LPTALLSPLRPSLS
B29: YMR104C 608-621 (peptide)
chain: LLKGYIPPYKPIVK
B30: YDL223C 906-919 (peptide)
chain: NFPSLIDPHVPTYG
B31: YER155C 650-663 (peptide)
chain: LLISHLFPTNPEFS
B32: YDR405W 164-177 (peptide)
chain: MEEPFIWPEEPRPD
B33: YLR069C 734-747 (peptide)
chain: LEFSHYAPTAPHVQ
B34: YNL238W 106-119 (peptide)
chain: LFKRLPVPAPPMDS
B35: YPR183W 188-201 (peptide)
chain: LLAKLPLPRDPRVA
B36: YHL028W 522-535 (peptide)
chain: LASPFHDPILPRRT
B37: YNL206C 125-138 (peptide)
chain: MASFLPVPEKPNLI
B38: YLR006C 162-175 (peptide)
chain: NEAPMLSPQRPYST
B39: YNL204C 272-285 (peptide)
chain: NEKLHETPHLPSPV
B40: YBR172C 710-723 (peptide)
chain: LELLLSLPTGPESK
B41: YDL033C 241-254 (peptide)
chain: NFLKHYLPSSPGDI
B42: YER014W 436-449 (peptide)
chain: MLNEHGVPVVPSRE
B43: YLR291C 121-134 (peptide)
chain: MFNLLQKPEQPHQN
B44: YKL147C 80-93 (peptide)
chain: LLLPLLLPPLPSVK
B45: YPL087W 1-14 (peptide)
chain: MLFSWPYPEAPIEG
B46: YPL012W 957-970 (peptide)
chain: LPEELMRPKVPELL
B47: YLL016W 406-419 (peptide)
chain: LPTGYYEPMKPSSL
B48: YCL016C 283-296 (peptide)
chain: KWKSLFPPFFPSDI
B49: YGL099W 130-143 (peptide)
chain: LAKDLIVPRRPEWN
B50: YLR342W 137-150 (peptide)
chain: NAIAMALPNEPYPA
B51: YGL035C 132-145 (peptide)
chain: LPQQHLSPLIPIAI
B52: YER064C 198-211 (peptide)
chain: NASLLRDPSAPYAH
B53: YBR031W 22-35 (peptide)
chain: LPAVFSAPIRPDIV

For this assay, the target named is T1, Myo5 SH3 (MYO5_YEAST), Q04439. Kind of assay: SPOT array.
For the molecule B1, the normalised SPOT signal, Boehringer light units (BLU); mean over the file's lines of this peptide is 172.
In turn, B2 registered a normalised SPOT signal, Boehringer light units (BLU); mean over the file's lines of this peptide of 20400.
B3 showed a normalised SPOT signal, Boehringer light units (BLU); mean over the file's lines of this peptide of 191.
In turn, B4 showed a normalised SPOT signal, Boehringer light units (BLU); mean over the file's lines of this peptide of 255.
Consider B5, for which the normalised SPOT signal, Boehringer light units (BLU); mean over the file's lines of this peptide came to 156.
As to B6, the normalised SPOT signal, Boehringer light units (BLU); mean over the file's lines of this peptide is 223.
Then B7, with 226; and B8, with 268.
For B9, the normalised SPOT signal, Boehringer light units (BLU); mean over the file's lines of this peptide was determined as 87.2.
For the molecule B10, the normalised SPOT signal, Boehringer light units (BLU); mean over the file's lines of this peptide turned out to be 241.
The molecule B11 displayed a normalised SPOT signal, Boehringer light units (BLU); mean over the file's lines of this peptide of 170.
For the molecule B12, the normalised SPOT signal, Boehringer light units (BLU); mean over the file's lines of this peptide was determined as 253.
Then B13, with 178.
For B14, the normalised SPOT signal, Boehringer light units (BLU); mean over the file's lines of this peptide came to 126.
Then B15, with 198; and B16, with 429.
To B17 belongs 155.
Then B18, with 239; and B19, with 125.
B20 displayed a normalised SPOT signal, Boehringer light units (BLU); mean over the file's lines of this peptide of 152.
For B21, the normalised SPOT signal, Boehringer light units (BLU); mean over the file's lines of this peptide was 80.1.
On to B22, for which the normalised SPOT signal, Boehringer light units (BLU); mean over the file's lines of this peptide stood at 43400.
To B23 belongs 162; to B24, 257; to B25, 455.
As to B26, the normalised SPOT signal, Boehringer light units (BLU); mean over the file's lines of this peptide was 344.
B27 yielded a normalised SPOT signal, Boehringer light units (BLU); mean over the file's lines of this peptide of 185.
Consider B28, for which the normalised SPOT signal, Boehringer light units (BLU); mean over the file's lines of this peptide was 115.
B29 registered a normalised SPOT signal, Boehringer light units (BLU); mean over the file's lines of this peptide of 169.
B30: the normalised SPOT signal, Boehringer light units (BLU); mean over the file's lines of this peptide worked out at 97.4.
On to B31, for which the normalised SPOT signal, Boehringer light units (BLU); mean over the file's lines of this peptide is 414.
To B32 belongs 79.7; to B33, 103; to B34, 145.
To B35 belongs 344; to B36, 288; to B37, 161.
Turning to B38, the normalised SPOT signal, Boehringer light units (BLU); mean over the file's lines of this peptide was 111.
The molecule B39 returned a normalised SPOT signal, Boehringer light units (BLU); mean over the file's lines of this peptide of 109.
B40 gave a normalised SPOT signal, Boehringer light units (BLU); mean over the file's lines of this peptide of 143.
For the molecule B41, the normalised SPOT signal, Boehringer light units (BLU); mean over the file's lines of this peptide is 172.
B42 yielded a normalised SPOT signal, Boehringer light units (BLU); mean over the file's lines of this peptide of 199.
The molecule B43 came in with a normalised SPOT signal, Boehringer light units (BLU); mean over the file's lines of this peptide of 204.
To B44 belongs 6470; to B45, 126.
B46 displayed a normalised SPOT signal, Boehringer light units (BLU); mean over the file's lines of this peptide of 145.
In turn, B47 came in with a normalised SPOT signal, Boehringer light units (BLU); mean over the file's lines of this peptide of 165.
In turn, B48 displayed a normalised SPOT signal, Boehringer light units (BLU); mean over the file's lines of this peptide of 242.
As to B49, the normalised SPOT signal, Boehringer light units (BLU); mean over the file's lines of this peptide turned out to be 117000.
Then B50, with 96.8; and B51, with 45.3.
Molecule B52 registered a normalised SPOT signal, Boehringer light units (BLU); mean over the file's lines of this peptide of 134.
B53 showed a normalised SPOT signal, Boehringer light units (BLU); mean over the file's lines of this peptide of 202.
